# From the DeepSol protein solubility set
# Assay: soluble on expression in E. coli; label from the status in PepcDB or PDB records
row,Sequence,soluble on expression in E. coli
1,MEVKLWNDKREREMYENFAELFAIIKATEKLEKAYIRDLINPSEYESECQKLIVHFKTLSATLKDTVPNIERFADTYKMDCPAALYRLVTSGLPATVEHRATVAASTSNSASIVAECVQNFITSMDSLKLNMVAVDQVYPLLSDLSASLNKLSILPPDFEGKTKMKEWLSRLSKMGAADELTEQQSRQLHFDLESSYNSFMAALPKAGN,soluble
2,MPVHSRGDKKETNHHDEMEVDYAENEGSSSEDEDTESSSVSEDGDSSEMDDEDCERRRMECLDEMSNLEKQFTDLKDQLYKERLSQVDAKLQEVIAGKAPEYLEPLATLQENMQIRTKVAGIYRELCLESVKNKYECEIQASRQHCESEKLLLYDTVQSELEEKIRRLEEDRHSIDITSELWNDELQSRKKRKDPFSPDKKKPVVVSGPYIVYMLQDLDILEDWTTIRKAMATLGPHRVKTEPPVKLEKHLHSARSEEGRLYYDGEWYIRGQTICIDKKDECPTSAVITTINHDEVWFKRPDGSKSKLYISQLQKGKYSIKHS,soluble
3,MGSDKIHHHHHHMTASVNVPLNSRGKLAASLPAEQLAEITALFEFRRTGYSLDAPFYTDRSIFNIDMEAIFGQHWIFAASTAELPEPGDYVTVDYGPYSLIVLRNDDGAVNVLHNVCRHRGARVLTEAAGSTGNLVCGYHSWTYSPEGNLIHASAPGETKFDKSCFGLKRAHGREVAGLIFVCIADDAPTDFDETAKIFEPYLAPHDLSKTKIAYQQNIIEEGNWKLVMENNRECYHCDGHPELACSLFPTWGLTEGLIPPHLEEVWNRNKEAQSSLEERCRRYGLPYEVVEQLDTRIAGIRISRESLDGEGESFSADGRRLSKKLLGDLPDFRLGRCSMHLQPNSWFHFLGDHVITFGVFPINEHQSLVRTTWLVADDAVEGVDYDLEKLTYTWKQTNLQDKAFVELCQQGAGSPAYEPGPYMKSEYQVEAFINWYVQRVQEHLA,not soluble
4,MKIIYCITKADNGGAQTHLIQLANHFCVHNDVYVIVGNHGPMIEQLDARVNVIIIEHLVGPIDFKQDILAVKVLAQLFSKIKPDVIHLHSSKAGTVGRIAKFISKSKDTRIVFTAHGWAFTEGVKPAKKFLYLVIEKLMSLITDSIICVSDFDKQLALKYRFNRLKLTTIHNGIADVPAVKQTLKSQSHNNIGEVVGMLPNKQDLQINAPTKHQFVMIARFAYPKLPQNLIAAIEILKLHNSNHAHFTFIGDGPTLNDCQQQVVQAGLENDVTFLGNVINASHLLSQYDTFILISKHEGLPISIIEAMATGLPVIASHVGGISELVADNGICMMNNQPETIAKVLEKYLIDSDYIKMSNQSRKRYLECFTEEKMIKEVEDVYNGKSTQ,not soluble
5,MSLIIMKAITVLSGGLDSTVVTLIAKDLGYEVTAITFNYGQRAAKREINSAKKICEILGIEHIVVDLPFVKQFGKSSLITEKEIPTLKMEELDSEKAYETMKAVWVPARNVIMFGIASGFAEALDAEKIFIGINKEEGVTFPDNTIEFVEAFNKVLEYGTLNKVKIEAPLYDKTKEEIVKLGAELEKKLGVEVLKYSYSCYHDNGEDFLHCGKCESCMRRKRAFLMAGVEDKTKYIEEGHHHHHH,soluble
6,MDTTNQSEDIKPCDSDLMESILMFDEPISDILAHNKLWISHARTRSNFFPQEGRHISNQHTEAATSLKMWMLSKNLVVIVKRKDDIFPCKILTRNPENLFVARFLESGKEKHIQVEYSDIIMTRSELEKALPLCQHLIPARNWDDFYIIRDFEKATPYFEQGLSALVKPGQQFELQLEDAPDFYVMATVVKNYRGFLLVEYQNVSCVQKKTMPVFLFHFLMLFQFKRWIHMLSPYCHEIGWGKNEKQEYLKRGPYNRHMNVDLVAGLVKQSTNQKLGAVPEIVFRNNCPVPHRIPEYSACVYLDLDQKRFYFAHKVTTKTCRNNRHFFNISIGKNLVTSKQNNRPYEFHVYHPRILPYSVAKRMEVQIILPPDVKLLPDESNLDGYLRTYCNPCDKHKTSDRVQPSPKIAKKKNGPLLLDDTPDAMFRSRPLLGDNIGAHKEWTNFMNHIPDYKRKDLLKSMDTLKFCEIFRPTPTGALQLTAAEVTGQQECMLRLKVSGEDEPVYIHNADPHLYHLGACLDMELAINFHGEFFDEKPLKKNKNANNGFSSF,not soluble
7,MGHHHHHHSHMDELVHDLASALEQTSEQNKLGELWEEMALSPRQQRRQLRKRRGRKRRSDFTHLAEHTCCYSEASESSLDEATKDCREVAPVTNFSDSDDTMVAKRHPALNAIVKSKQHSWHESDSFTENAPCRPLRRRRKVKRVTSEVAASLQQKLKVSDWSYERGCRFKSAKKQRLSRWKENTPWTSSGHGLCESAENRTFLSKTGRKERMECETDEQKQGSDENMSEW,not soluble
8,MEEWDVPQMKKEVESLKYQLAFKREMSSKTIPELLKWIEDGIPKDPFLNPDLMKNNPWVEKAKCTIL,not soluble
9,MGSDKIHHHHHHMQALERDYGHGDEVASHCHAEDQLIYAASGVMRVSSEGGSWVIPGGHALWMPAGVSHAIRMKGVVCMRTLLLDAHIERCQVIVVSGLLRELILAASRVLNLRDGAHARALILYELAAARRIDAFVPTPQHARLRAWCERFLQDPAQDLTLEQCGAQLNMSARSVARLFQREVGMSYGQWRARARVMLSQQCLADGKPILNVALEHGYQSASAFTAMFKRILGHAPSDWQNGTAREY,not soluble
10,MRLEDEIKQVKAFKNDYNKAVVNLIFTYNWLESSSKAFFKDFDLTSQQFNILRILKGQHPNPSTINLLRDRMLDKMCDASRLVERLRIKGLVERSQASSDKRAVDIFITKKGEELLAKIEVEFPAFEEKLHTLSAEEIVVFNNLLDKLRG,not soluble
11,MTVPHIPRGPVMADIAAFRLTEEEKQRLLDPAVGGIILFRRNFQNIEQLKTLTAEIKALRTPELIIAVDHEGGRVQRFIEGFTRLPAMSTLGEIWDKDGASAAETAAGQVGRVLATELSACGIDLSFTPVLDLDWGNCPVIGNRSFHRNPEAVARLALALQKGLTKGGMKSCGKHFPGHGFVEGDSHLVLPEDWRSLSELETADLAPFRIMSREGMAAVMPAHVVYPQVDTKPAGFSEIWLKQILRRDIGFKGVIFSDDLTMEGACGAGGIKERARISFEAGCDIVLVCNRPDLVDELREDFRIPDNPTLAQRWQYMANTLGSAAAQAVMQTADFQAAQAFVAGLASPQDTAGGVKVGEAF,not soluble
12,PLPEACADMLWSNLGLLAAEQILPVLHNWARALKTDGLLFFTCFGRDTLAELKCRLKENGIESRSALFPDMHDLGDMLAENGFYDPVTDTAKLVLDYKKAETFWADMDTLGVWRAMAWNDENAARSCVGTIFEREGGLGITLETVYGHAVK,not soluble
13,MYQQSSFKENLIHWFDENQREMPWRQTTNPYYIWLSEVMLQQTQVKTVIDYYHRFVERFPTVEVLSQASEDEVLKYWEGLGYYSRARNFHTAIKEVHDKYEGLVPKDPDQFKALKGVGPYTQAAVMSIAYNVPLATVDGNVFRVWSRLNDDYRDIKLQSTRKSYEQELLPYVTTEAGTFNQAMMELGALICTPKNPLCLFCPVQENCEAFDKGTFEKLPVKSKNVSKKVIEQSVFLIRNNQGQYLLQKRSEKLLHGMWQFPMFESEHARRKMTEKIGHDIQPVETPIFELKHQFTHLTWKIKVYAVSGAINIETLPDDMIWFDLSDRDQYTFPVPMSKIYQFING,not soluble
14,RHMRIAVIGGGSSYTPELVKGLLDISEDVRIDEVIFYDIDEEKQKIVVDFVKRLVKDRFKVLISDTFEGAVVDAKYVIFQFRPGGLKGRENDEGIPLKYGLIGQETTGVGGFSAALRAFPIVEEYVDTVRKTSNATIVNFTNPSGHITEFVRNYLEYEKFIGLCNVPINFIREIAEMFSARLEDVFLKYYGLNHLSFIEKVFVKGEDVTEKVFENLKLKLSNIPDEDFPTWFYDSVRLIVNPYLRYYLMEKKMFKKISTHELRAREVMKIEKELFEKYRTAVEIPEELTKRGGSMYSTAAAHLIRDLETDEGKIHIVNTRNNGSIENLPDDYVLEIPCYVRSGRVHTLSQGKGDHFALSFIHAVKMYERLTIEAYLKRSKKLALKALLSHPLGPDVEDAKDLLEEILEANREYVKLG,soluble
15,MDLPKAYDPKSVEPKWAEKWAKNPFVANPKSGKPPFVIFMPPPNVTGSLHMGHALDNSLQDALIRYKRMRGFEAVWLPGTDHAGIATQVVVERLLLKEGKTRHDLGREKFLERVWQWKEESGGTILKQLKRLGASADWSREAFTMDEKRSRAVRYAFSRYYHEGLAYRAPRLVNWCPRCETTLSDLEVETEPTPGKLYTLRYEVEGGGFIEIATVRPETVFADQAIAVHPEDERYRHLLGKRARIPLTEVWIPILADPAVEKDFGTGALKVTPAHDPLDYEIGERHGLKPVSVINLEGRMEGERVPEALRGLDRFEARRKAVELFREAGHLVKEEDYTIALATCSRCGTPIEYAIFPQWWLRMRPLAEEVLKGLRRGDIAFVPERWKKVNMDWLENVKDWNISRQLWWGHQIPAWYCEDCQAVNVPRPERYLEDPTSCEACGSPRLKRDEDVFDTWFSSALWPLSTLGWPEETEDLKAFYPGDVLVTGYDILFLWVSRMEVSGYHFMGERPFKTVLLHGLVLDEKGQKMSKSKGNVIDPLEMVERYGADALRFALIYLATGGQDIRLDLRWLEMARNFANKLYNAARFVLLSREGFQAKEDTPTLADRFMRSRLSRGVEEITALYEALDLAQAAREVYELVWSEFCDWYLEAAKPALKAGNAHTLRTLEEVLAVLLKLLHPMMPFLTSELYQALTGKEELALEAWPEPGGRDEEAERAFEALKQAVTAVRALKAEAGLPPAQEVRVYLEGETAPVEENLEVFRFLSRADLLPERPAKALVKAMPRVTARMPLEGLLDVEEWRRRQEKRLKELLALAERSQRKLASPGFREKAPKEVVEAEEARLKENLEQAERIREALSQIG,soluble
16,QVQLQESGGGLVQAGDSLKLSCEASGDSIGTYVIGWFRQAPGKERIYLATIGRNLVGPSDFYTRYADSVKGRFAVSRDNAKNTVNLQMNSLKPEDTAVYYCAAKTTTWGGNDPNNWNYWGQGTQVTVSS,soluble
17,MEIPVIEPLFTKVTEDIPGAAGPVFDKNGDFYIVAPYVEVNGKPAGEILRIDLKTGKKTVICKPEVNGYGGIPIGCQCDRDANQLFVADMRLGLLVVQTDGTFEEIAKKDSEGRRMQGCAYCAFDYEGNLWITAPAGEVAPADFTISLQEKFGSIYCFTTDGQMIQVDTAFQAPAGIAVRHMNDGRPYQLIVAEQPTKKLWSYDIKGPAKIENKKVWGHIPGTHKGGAAGMDFDEDNNLLVANWGSSHIEVFGPDGGQPKMRIRCPFEKPSALHFKPQTKTIFVTEHENNAVWKFEWQRNGKKQYCETLKFGIFGSLEHHHHHH,soluble
18,MCEQCGKCKCGECTAPRTLPSCLACNRQCLCSAESMVEYGTCMCLVKGIFYHCSNDDEGDSYSDNPCSCSQSHCCSRYLCMGAMSLFLPCLLCYPPAKGCLKLCRRCYDWIHRPGCRCKNSNTVYCKLESCPSRGQGKPSLEHHHHHH,not soluble
19,MSYPWSNKNGEAASSSKTTVAPPLSPPRYEKVLDFSTLDTQRHRYEVRDQANQRAVVSSAKAESSMIDKFCKENTRIQTNPGIDLPDDYGTDAIVANAIGDQRIVNNLKCVHVTTFNAVQQMSIQVIREGRGLVVEAPTGIGKTYAFLIPAIEAALKNRQSNCFEYTKPSPSILIMASTSALVDQLFNRCELILGLQCMDNVEPIRDIKIDKLVANHPFTKGQCDIAFCTIGKLKATIECGDVCLDNLKTIILDEADKMIDNCAFGPDINWILDQLKEENLENLQSCFFSATYNKNANGTIALTVLQMRMLGEDDPWSVIICPRMSGYITQRVVRVGRGRPNDIRSHPWVIKMGIIRKLIDDDLKETGCSKDGPYNETIAIFCETVQRVTQVTMALRQLGYNFKPVCSMITKNQQLVTVNDLEFRKIHGVVCTNILARGIDVSSVKHTIIMEMSADFDTYKHRIGRVGRDGCGGKSTVLVEHHQLQGGPASNVIEQLYNFMKESKEDIPQWMQEWIVARRNNNIDSWA,not soluble
